For the data set, the system named is Saccharomyces cerevisiae. In words: protein stability index of tFT-peptide fusion (C-terminal peptide) (PSI (0-1 scale)); higher = more stable (slower turnover). The following applies: temperature: 30 C. On the procedure: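 MPS profiling in S. cerevisiae of the yeast C-terminome library: the last 12 aa of each annotated ORF are fused to the C-terminus of a sfGFP-mCherry timer, after a GGGS linker. Cells are FACS-sorted into 8 mCherry/sfGFP bins and deep-sequenced. PSI runs from 0 (unstable) to 1 (stable); wild type and das1Δ backgrounds, two technical replicates each.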

The mark [1] stands for this setting: genetic background: das1 deletion.

± gives the standard deviation of the averaged measurements.

Sequence AKVYFLGRDSSI [NDE1 C-terminal 12 aa] yielded a protein stability index under setting [1] of 0.708 ± 0.016 and a protein stability index (genetic background: wild type) of 0.741 ± 0.076.
On to ALENENKRKAKL [CAT2 C-terminal 12 aa], for which the protein stability index reads like this: under setting [1], 0.79 ± 0.015; (genetic background: wild type) 0.798 ± 0.11.
As for ALGLAGAVMMLL [SPI1 C-terminal 12 aa], the protein stability index by setting is: under setting [1], 0.693 ± 0.013; (genetic background: wild type) 0.746 ± 0.025.
Regarding ALQKQIKNALPC [PTP2 C-terminal 12 aa], the protein stability index runs as follows: under setting [1], 0.694 ± 0.024; (genetic background: wild type) 0.69 ± 0.029.
The sequence “ALSCLGHSKIFI [YML094C-A C-terminal 12 aa]” registered a protein stability index under setting [1] of 0.7082 ± 0.0041 and a protein stability index (genetic background: wild type) of 0.706 ± 0.012.
For the sequence ALSKDGIYTITN [PAU13 C-terminal 12 aa], the protein stability index turned out to be 0.706 ± 0.027 under setting [1] and 0.679 ± 0.014 (genetic background: wild type).
For AMDYAISIENIV [RPN12 C-terminal 12 aa], the protein stability index is, setting by setting: under setting [1], 0.665 ± 0.015; (genetic background: wild type) 0.646 ± 0.015.
Taken in the same sequence, the figures for ANFECSSWKFAS [EFM5 C-terminal 12 aa] were 0.7167 ± 0.0049 and 0.646 ± 0.0085.
Taken in the same sequence, the figures for APPKLNNSSESE [STE23 C-terminal 12 aa] were 0.681 ± 0.0074 and 0.674 ± 0.0091.
Take AQGGFAQWATGQ [APS3 C-terminal 12 aa]: the protein stability index runs as follows: under setting [1], 0.718 ± 0.0089; (genetic background: wild type) 0.683 ± 0.04.
For AQNFILFHDYLH [YLR365W C-terminal 12 aa], in that order: 0.698 ± 0.012 and 0.711 ± 0.032.
Take ASFVEVNAEVFL [FRS1 C-terminal 12 aa]: the protein stability index stood at 0.7129 ± 0.0051 under setting [1] and 0.7111 ± 0.0032 (genetic background: wild type).
For ASNGVRLSEIGW [SNZ1 C-terminal 12 aa], in that order: 0.699 ± 0.011 and 0.694 ± 0.027.
For ASVIPGGCLGNL [ZPS1 C-terminal 12 aa], in that order: 0.703 ± 0.018 and 0.685 ± 0.018.
Consider AVASFFLRNKRR [FIS1 C-terminal 12 aa], for which the protein stability index by setting is: under setting [1], 0.7073 ± 0.0052; (genetic background: wild type) 0.69 ± 0.027.
Consider AVENQFFSQKKK [ACS2 C-terminal 12 aa], for which the protein stability index is, setting by setting: under setting [1], 0.707 ± 0.044; (genetic background: wild type) 0.697 ± 0.034.
Turning to AVNALNEAMDKL [BNA5 C-terminal 12 aa], the protein stability index under setting [1] was 0.677 ± 0.015 and the protein stability index (genetic background: wild type) amounted to 0.696 ± 0.11.
Take AVYEELVHELFH [PSP1 C-terminal 12 aa]: the protein stability index turned out to be 0.72 ± 0.021 under setting [1] and 0.675 ± 0.031 (genetic background: wild type).
In turn, AYEPFSFRAIIE [STV1 C-terminal 12 aa] registered a protein stability index under setting [1] of 0.686 ± 0.008 and a protein stability index (genetic background: wild type) of 0.723 ± 0.035.
On to CAAVEKGPILDA [THI74 C-terminal 12 aa], for which the protein stability index turned out to be 0.691 ± 0.019 under setting [1] and 0.682 ± 0.021 (genetic background: wild type).
Taken in the same sequence, the figures for “CGCQLAVAMTTC [YFL015W-A C-terminal 12 aa]” were 0.553 ± 0.039 and 0.513 ± 0.013.
As to CLILSQYSILMD [ATG18 C-terminal 12 aa], the protein stability index by setting is: under setting [1], 0.631 ± 0.038; (genetic background: wild type) 0.616 ± 0.045.
For CLMVSFLLLFGV [OLI1 C-terminal 12 aa], in that order: 0.315 ± 0.0097 and 0.3088 ± 0.0016.
Consider CLSGGLLRKIPK [TMH18 C-terminal 12 aa], for which the protein stability index came to 0.722 ± 0.087 under setting [1] and 0.6861 ± 0.006 (genetic background: wild type).
Taken in the same sequence, the figures for CPPTIEIGGGGH [MIR1 C-terminal 12 aa] were 0.712 ± 0.0075 and 0.706 ± 0.0053.
Taken in the same sequence, the figures for CSLINSCAFFCL [YDR413C C-terminal 12 aa] were 0.704 ± 0.012 and 0.647 ± 0.013.
Taken in the same sequence, the figures for CSTRRSYLRYKK [YBR285W C-terminal 12 aa] were 0.705 ± 0.0047 and 0.6634 ± 0.0014.
Consider CVNSASLNLKKD [MXR2 C-terminal 12 aa], for which the protein stability index by setting is: under setting [1], 0.695 ± 0.023; (genetic background: wild type) 0.682 ± 0.035.
Taken in the same sequence, the figures for “CVTQACGRTIKM [YBR141W-A C-terminal 12 aa]” were 0.732 ± 0.037 and 0.779 ± 0.13.
Turning to DAIDNSDEITQD [IRR1 C-terminal 12 aa], the protein stability index under setting [1] worked out at 0.709 ± 0.029 and the protein stability index (genetic background: wild type) worked out at 0.703 ± 0.064.
With DALYRIIYGNIL [TIP20 C-terminal 12 aa], the protein stability index amounted to 0.711 ± 0.02 under setting [1] and 0.743 ± 0.037 (genetic background: wild type).
Regarding DATRREVMTERK [LSM2 C-terminal 12 aa], the protein stability index reads like this: under setting [1], 0.672 ± 0.014; (genetic background: wild type) 0.688 ± 0.059.
Regarding DAYHKAAEENKD [MCT1 C-terminal 12 aa], the protein stability index came to 0.6729 ± 0.0053 under setting [1] and 0.693 ± 0.016 (genetic background: wild type).
Taken in the same sequence, the figures for DDEFGDLDAVFF [SNF6 C-terminal 12 aa] were 0.747 ± 0.021 and 0.739 ± 0.0056.
Sequence DDIANNQSICCV [YPT11 C-terminal 12 aa] gave a protein stability index under setting [1] of 0.649 ± 0.02 and a protein stability index (genetic background: wild type) of 0.649 ± 0.018.
For DDSKILIEHLSE [PET54 C-terminal 12 aa], in that order: 0.697 ± 0.024 and 0.662 ± 0.04.
For DEFIKKNSDKIR [EXO84 C-terminal 12 aa], the protein stability index runs as follows: under setting [1], 0.676 ± 0.047; (genetic background: wild type) 0.64 ± 0.037.
Taken in the same sequence, the figures for DEMQDFLKKHAS [SWI6 C-terminal 12 aa] were 0.7311 ± 0.0031 and 0.643 ± 0.033.
DERLEQLKRLGI [HOM3 C-terminal 12 aa]: the protein stability index by setting is: under setting [1], 0.7246 ± 0.0048; (genetic background: wild type) 0.677 ± 0.019.
On to DERRQPVSNLRM [YDL163W C-terminal 12 aa], for which the protein stability index runs as follows: under setting [1], 0.712 ± 0.018; (genetic background: wild type) 0.658 ± 0.01.
For DEVTYLMFSSIM [SPG1 C-terminal 12 aa], in that order: 0.713 ± 0.011 and 0.658 ± 0.026.
For DEWLNLHINIVE [SHU2 C-terminal 12 aa], in that order: 0.741 ± 0.0062 and 0.717 ± 0.014.
For the sequence DEWRAKYGGQQV [MES1 C-terminal 12 aa], the protein stability index is, setting by setting: under setting [1], 0.675 ± 0.037; (genetic background: wild type) 0.676 ± 0.029.
Regarding DFENKLKKKKRK [TMA64 C-terminal 12 aa], the protein stability index was 0.7268 ± 0.0047 under setting [1] and 0.715 ± 0.018 (genetic background: wild type).
Taken in the same sequence, the figures for DIDDDVGEDSED [RMR1 C-terminal 12 aa] were 0.694 ± 0.014 and 0.662 ± 0.013.
DIIYFRAGAGKN [OLA1 C-terminal 12 aa]: the protein stability index under setting [1] was determined as 0.691 ± 0.017 and the protein stability index (genetic background: wild type) came out at 0.6666 ± 0.0055.
For DILKILSSSFHN [SPC29 C-terminal 12 aa], in that order: 0.7095 ± 0.0039 and 0.709 ± 0.014.
As to DISVQQVKIASK [SPF1 C-terminal 12 aa], the protein stability index reads like this: under setting [1], 0.682 ± 0.018; (genetic background: wild type) 0.6857 ± 0.0041.
For DKAAPALKKVKM [SFL1 C-terminal 12 aa], the protein stability index is, setting by setting: under setting [1], 0.675 ± 0.026; (genetic background: wild type) 0.71 ± 0.041.
On to DKIDVVLKKISQ [ECM15 C-terminal 12 aa], for which the protein stability index is, setting by setting: under setting [1], 0.7095 ± 0.0048; (genetic background: wild type) 0.683 ± 0.067.
Consider DKLAQRLRALRG [DID2 C-terminal 12 aa], for which the protein stability index was found to be 0.699 ± 0.01 under setting [1] and 0.684 ± 0.048 (genetic background: wild type).
As for DKLSWSVRWEPR [URA4 C-terminal 12 aa], the protein stability index is, setting by setting: under setting [1], 0.712 ± 0.021; (genetic background: wild type) 0.721 ± 0.022.
Taken in the same sequence, the figures for DLEFEEQREPKL [NVJ2 C-terminal 12 aa] were 0.719 ± 0.006 and 0.668 ± 0.011.
For DLKTGNAVKGEL [SSZ1 C-terminal 12 aa], in that order: 0.669 ± 0.019 and 0.6914 ± 0.0056.
Turning to DLLDMIDSLGKL [FSH3 C-terminal 12 aa], the protein stability index was 0.688 ± 0.023 under setting [1] and 0.694 ± 0.056 (genetic background: wild type).
Consider DNFMNNSDIFQN [TGL5 C-terminal 12 aa], for which the protein stability index is 0.741 ± 0.027 under setting [1] and 0.686 ± 0.0082 (genetic background: wild type).
For DPSKLRRVPVIQ [RGL1 C-terminal 12 aa], in that order: 0.69 ± 0.018 and 0.687 ± 0.066.
Taken in the same sequence, the figures for DQAKDASPNAKK [RGM1 C-terminal 12 aa] were 0.694 ± 0.0073 and 0.673 ± 0.011.
Taken in the same sequence, the figures for DRKQSQATNATN [ARP7 C-terminal 12 aa] were 0.687 ± 0.016 and 0.671 ± 0.0046.
For DRVQRAFPKPDT [GLG2 C-terminal 12 aa], the protein stability index came to 0.704 ± 0.016 under setting [1] and 0.686 ± 0.032 (genetic background: wild type).
For DSEEKKSKKSKK [CBF5 C-terminal 12 aa], in that order: 0.669 ± 0.056 and 0.6785 ± 0.0045.
For DSHEDMKRRRLE [ROX3 C-terminal 12 aa], the protein stability index came out at 0.6865 ± 0.0045 under setting [1] and 0.695 ± 0.0078 (genetic background: wild type).
Taken in the same sequence, the figures for DSIRRIREKYSN [APP1 C-terminal 12 aa] were 0.6896 ± 0.0039 and 0.492 ± 0.013.
Sequence DTFFDRVMKVLT [NAN1 C-terminal 12 aa] showed a protein stability index under setting [1] of 0.707 ± 0.034 and a protein stability index (genetic background: wild type) of 0.6917 ± 0.0012.
Taken in the same sequence, the figures for DVLDDLYRKLQR [CSE2 C-terminal 12 aa] were 0.7138 ± 8.1e-05 and 0.699 ± 0.02.
In the case of DWQNGQVEDSIP [PEX14 C-terminal 12 aa], the protein stability index under setting [1] came to 0.711 ± 0.023 and the protein stability index (genetic background: wild type) was 0.672 ± 0.0079.
Consider DYKLRELIYDTI [AIP5 C-terminal 12 aa], for which the protein stability index by setting is: under setting [1], 0.7014 ± 0.0011; (genetic background: wild type) 0.661 ± 0.018.
For DYSFVNTFRDYE [HAL9 C-terminal 12 aa], in that order: 0.697 ± 0.022 and 0.736 ± 0.053.

The record behind these values is the supplement of paper PMC10724198.
